The experiment can be described thus: UDP luminescence plate assay of E. coli extracts, mutants within SEQ ID No: 17, 2 mM metribuzin. The class given is biochemical, Zea mays. The following applies: for metribuzin signal relative to the SEQ ID No:17 control (first parentheses) / ratio of metribuzin to DMSO signal (second parentheses) / SIGNAL: metribuzin signal of mutant divided by the signal of the SEQ ID No. 17 control / luminescence signal observed with 2 mM metribuzin: 2 mM metribuzin; for metribuzin signal relative to the SEQ ID No:17 control (first parentheses) / ratio of metribuzin to DMSO signal (second parentheses): additional mutation in SEQ ID No: 17; for SIGNAL: metribuzin signal of mutant divided by the signal of the SEQ ID No. 17 control: relative to SEQ ID No: 17 control; for luminescence signal in the DMSO control / luminescence signal observed with 2 mM metribuzin: additional mutations within SEQ ID No: 17; for luminescence signal in the DMSO control: DMSO in place of metribuzin; for luminescence signal observed with 2 mM metribuzin: control = SEQ ID No: 17. On the procedure:
Activities observed with metribuzin were generally lower in magnitude than seen with herbicide V in the previous examples. For example, in one plate assay run with 2 mM metribuzin using 5 ul of diluted extract of plate-grown BL21DE3 cells expressing w/t bx9 and assayed for 40 minutes (as described in Example 2) the UDP-Glo luminescence signal was ˜3.4 E6 as compared with ˜2.3E6 in the DMSO control and ˜1.7E6 in the H24A null mutant control. […] It was therefore important to assess potential improvements in the metribuzin activity of the various mutants relative to the wild type bx9 enzyme based not only on the H24A null activity control but also based upon controls with DMSO in place of metribuzin acceptor substrate. In some plate assays (using more dilute extracts) the metribuzin signals from the w/t enzyme was the same or barely greater than the DMSO control. Additionally, some mutations gave an increase in the ‘background’ UDP-glucose hydrolysis activity with just DMSO present that was the same or similar to the magnitude of the increase in signal seen with metribuzin. In these instances it is therefore uncertain from just this UDP-Glo assay method whether the specific metribuzin signal (glucosylation of metribuzin) is improved or not i.e. the signal seen with metribuzin may or may not all or to a large part be attributable to increased background hydrolysis). […] Thus the ratio of the metribuzin to DMSO signal as well as the increase in signal relative to the w/t bx9 is used to help distinguish those mutations most likely to offer the highest activity to metribuzin. A follow up assay monitored by, for example, LC MS is one method to distinguish these cases more quantitatively. The tables below summarise the results from two different sets of luminescence plate assays to detect single mutations giving improvements in the magnitude of the signal with metribuzin relative to w/t bx9 and/or the apparent specificity for metribuzin as measured by the deviation of the ratio of metribuzin to DMSO control activity from the bx9 w/t value of around unity.
A further separate screen was carried out to explore a library of additional mutations at various positions within the context of SEQ ID No: 17 for improved metribuzin activity. These were assayed, assessed and scored as above. […] These were S75K (2.5)(1.25), A236G (4.0)(1.15), A433V (3.3)(9.0) and R449C (1.8)(1.2).
A yet further and more comprehensive screen was carried out to explore saturation mutagenesis at all remaining amino acid positions within the context of SEQ ID No:17 for improved metribuzin activity. Again these were assayed, assessed and scored as above and the results of (out of the thousands screened) of the subset that were of interest are summarized in Table 16.

Data on 6 molecules can be found in US20200270588A1, “GLUCOSYL TRANSFERASE POLYPEPTIDES AND METHODS OF USE” (Syngenta Participations AG, priority 2017, published 2020).

B1: L215D: additional mutation in SEQ ID No: 17 (protein)
chain: MASSRTGAGAGGRVVVFPFPFQGHFNPVMRLARALHARGLAITVFHSGALDPADYPADYRFVPVTVEADPKLLASEDIAAIVTTLNASCDAPFRARLSALLAAEGRDSVRCVFTDVVWNAVLTASSDLGVPALGMMTASAASLRDYMAYRTLIDKGYLPVKEERKEDPVPELPPYLVKDLLRVDTSDLEEFAELLARTVTAARRASGLIFNTFPDIETDTLAEIHKALSVPVFAVAPLNKLVPTATASLHGVVQADRGCLQWLDTQQPGSVLYVSFGSFAAMDPHEFVELAWGLADSKRPFVWVVRPNLIRGFESGALPDGVEDEVRGRGIVVKWAPQEEVLAHPAVGGFLTHNGWNSTVEAISEGVPMVCCPRHGDQFGNMRYVCDVWKVGTELVGEQLERGQVKAAIDRLFGTKEGEEIKERMKEFKIAAAKGIGIGVDVDETASPRTDLTDLVDLIKSF
modifications: Mutated Zea mays Bx9 protein sequence
Consider B1, for which the “metribuzin signal relative to the SEQ ID No:17 control (first parentheses)” value turned out to be 3.1, the “ratio of metribuzin to DMSO signal (second parentheses)” value (shortened to “ratio of metribuzin to DMSO signal”) turned out to be 1.34, the “SIGNAL: metribuzin signal of mutant divided by the signal of the SEQ ID No. 17 control” value stood at 3.14 and the “luminescence signal in the DMSO control” value came to 4.26E+06. For the same molecule, the “luminescence signal observed with 2 mM metribuzin” value (“luminescence signal observed” below) was 5.72E+06.

B2: W303L: additional mutation in SEQ ID No: 17 (protein)
chain: MASSRTGAGAGGRVVVFPFPFQGHFNPVMRLARALHARGLAITVFHSGALDPADYPADYRFVPVTVEADPKLLASEDIAAIVTTLNASCDAPFRARLSALLAAEGRDSVRCVFTDVVWNAVLTASSDLGVPALGMMTASAASLRDYMAYRTLIDKGYLPVKEERKEDPVPELPPYLVKDLLRVDTSDLEEFAELLARTVTAARRASGLIFNTFPLIETDTLAEIHKALSVPVFAVAPLNKLVPTATASLHGVVQADRGCLQWLDTQQPGSVLYVSFGSFAAMDPHEFVELAWGLADSKRPFVLVVRPNLIRGFESGALPDGVEDEVRGRGIVVKWAPQEEVLAHPAVGGFLTHNGWNSTVEAISEGVPMVCCPRHGDQFGNMRYVCDVWKVGTELVGEQLERGQVKAAIDRLFGTKEGEEIKERMKEFKIAAAKGIGIGVDVDETASPRTDLTDLVDLIKSF
modifications: Mutated Zea mays Bx9 protein sequence
B2: the “metribuzin signal relative to the SEQ ID No:17 control (first parentheses)” value was 2.3, the “ratio of metribuzin to DMSO signal” value is 1.35, the “SIGNAL: metribuzin signal of mutant divided by the signal of the SEQ ID No. 17 control” value is recorded as 2.30 and the “luminescence signal in the DMSO control” value was 3.10E+06. The “luminescence signal observed” value was found to be 4.20E+06.

B3: I216Y: additional mutation in SEQ ID No: 17 (protein)
chain: MASSRTGAGAGGRVVVFPFPFQGHFNPVMRLARALHARGLAITVFHSGALDPADYPADYRFVPVTVEADPKLLASEDIAAIVTTLNASCDAPFRARLSALLAAEGRDSVRCVFTDVVWNAVLTASSDLGVPALGMMTASAASLRDYMAYRTLIDKGYLPVKEERKEDPVPELPPYLVKDLLRVDTSDLEEFAELLARTVTAARRASGLIFNTFPLYETDTLAEIHKALSVPVFAVAPLNKLVPTATASLHGVVQADRGCLQWLDTQQPGSVLYVSFGSFAAMDPHEFVELAWGLADSKRPFVWVVRPNLIRGFESGALPDGVEDEVRGRGIVVKWAPQEEVLAHPAVGGFLTHNGWNSTVEAISEGVPMVCCPRHGDQFGNMRYVCDVWKVGTELVGEQLERGQVKAAIDRLFGTKEGEEIKERMKEFKIAAAKGIGIGVDVDETASPRTDLTDLVDLIKSF
modifications: Mutated Zea mays Bx9 protein sequence
Take B3: the “metribuzin signal relative to the SEQ ID No:17 control (first parentheses)” value amounted to 3.5, the “ratio of metribuzin to DMSO signal” value turned out to be 1.33, the “SIGNAL: metribuzin signal of mutant divided by the signal of the SEQ ID No. 17 control” value is reported as 3.50 and the “luminescence signal in the DMSO control” value worked out at 4.79E+06. Also, the “luminescence signal observed” value came out at 6.38E+06.

B4: A234C: additional mutation in SEQ ID No: 17 (protein)
chain: MASSRTGAGAGGRVVVFPFPFQGHFNPVMRLARALHARGLAITVFHSGALDPADYPADYRFVPVTVEADPKLLASEDIAAIVTTLNASCDAPFRARLSALLAAEGRDSVRCVFTDVVWNAVLTASSDLGVPALGMMTASAASLRDYMAYRTLIDKGYLPVKEERKEDPVPELPPYLVKDLLRVDTSDLEEFAELLARTVTAARRASGLIFNTFPLIETDTLAEIHKALSVPVFCVAPLNKLVPTATASLHGVVQADRGCLQWLDTQQPGSVLYVSFGSFAAMDPHEFVELAWGLADSKRPFVWVVRPNLIRGFESGALPDGVEDEVRGRGIVVKWAPQEEVLAHPAVGGFLTHNGWNSTVEAISEGVPMVCCPRHGDQFGNMRYVCDVWKVGTELVGEQLERGQVKAAIDRLFGTKEGEEIKERMKEFKIAAAKGIGIGVDVDETASPRTDLTDLVDLIKSF
modifications: Mutated Zea mays Bx9 protein sequence
Consider B4, for which the “metribuzin signal relative to the SEQ ID No:17 control (first parentheses)” value is listed as 3.0, the “ratio of metribuzin to DMSO signal” value is given as 1.29, the “SIGNAL: metribuzin signal of mutant divided by the signal of the SEQ ID No. 17 control” value came to 2.96 and the “luminescence signal in the DMSO control” value turned out to be 4.20E+06. Besides, the “luminescence signal observed” value turned out to be 5.40E+06.

B5: F313M: additional mutation in SEQ ID No: 17 (protein)
chain: MASSRTGAGAGGRVVVFPFPFQGHFNPVMRLARALHARGLAITVFHSGALDPADYPADYRFVPVTVEADPKLLASEDIAAIVTTLNASCDAPFRARLSALLAAEGRDSVRCVFTDVVWNAVLTASSDLGVPALGMMTASAASLRDYMAYRTLIDKGYLPVKEERKEDPVPELPPYLVKDLLRVDTSDLEEFAELLARTVTAARRASGLIFNTFPLIETDTLAEIHKALSVPVFAVAPLNKLVPTATASLHGVVQADRGCLQWLDTQQPGSVLYVSFGSFAAMDPHEFVELAWGLADSKRPFVWVVRPNLIRGMESGALPDGVEDEVRGRGIVVKWAPQEEVLAHPAVGGFLTHNGWNSTVEAISEGVPMVCCPRHGDQFGNMRYVCDVWKVGTELVGEQLERGQVKAAIDRLFGTKEGEEIKERMKEFKIAAAKGIGIGVDVDETASPRTDLTDLVDLIKSF
modifications: Mutated Zea mays Bx9 protein sequence
For the molecule B5, the “metribuzin signal relative to the SEQ ID No:17 control (first parentheses)” value is 1.9, the “ratio of metribuzin to DMSO signal” value was 1.30, the “SIGNAL: metribuzin signal of mutant divided by the signal of the SEQ ID No. 17 control” value was 1.91 and the “luminescence signal in the DMSO control” value was found to be 2.69E+06. Also, the “luminescence signal observed” value came out at 3.48E+06. For the same molecule, where the note is “2 mM metribuzin vs DMSO control, same mutant”, the “RATIO of the metribuzin signal to the DMSO signal” value was found to be 1.29.

B6: P284F: additional mutation in SEQ ID No: 17 (protein)
chain: MASSRTGAGAGGRVVVFPFPFQGHFNPVMRLARALHARGLAITVFHSGALDPADYPADYRFVPVTVEADPKLLASEDIAAIVTTLNASCDAPFRARLSALLAAEGRDSVRCVFTDVVWNAVLTASSDLGVPALGMMTASAASLRDYMAYRTLIDKGYLPVKEERKEDPVPELPPYLVKDLLRVDTSDLEEFAELLARTVTAARRASGLIFNTFPLIETDTLAEIHKALSVPVFAVAPLNKLVPTATASLHGVVQADRGCLQWLDTQQPGSVLYVSFGSFAAMDFHEFVELAWGLADSKRPFVWVVRPNLIRGFESGALPDGVEDEVRGRGIVVKWAPQEEVLAHPAVGGFLTHNGWNSTVEAISEGVPMVCCPRHGDQFGNMRYVCDVWKVGTELVGEQLERGQVKAAIDRLFGTKEGEEIKERMKEFKIAAAKGIGIGVDVDETASPRTDLTDLVDLIKSF
modifications: Mutated Zea mays Bx9 protein sequence
B6: the “metribuzin signal relative to the SEQ ID No:17 control (first parentheses)” value amounted to 1.8, the “ratio of metribuzin to DMSO signal” value was determined as 1.29, the “SIGNAL: metribuzin signal of mutant divided by the signal of the SEQ ID No. 17 control” value was 1.81 and the “luminescence signal in the DMSO control” value was determined as 2.55E+06. Further, the “luminescence signal observed” value is 3.30E+06.
